From patent publication US20220041674A1 (published 2022)
Non-standard residues stand in square brackets, D forms with d. Nal = naphthylalanine

What was measured:
[1] = molecular target: human chemokine receptor 4 (CXCR4) (human) (UniProt P61073); assay: competitive radioligand binding on Jurkat cells, [125I]FC131 0.1 nM, 2 h RT
[2] = molecular target: human chemokine receptor 4 (CXCR4) (human) (UniProt P61073); assay: competitive radioligand binding on Jurkat cells (400.000 cells/sample), [125I]FC-131
[3] = molecular target: human chemokine receptor 4 (CXCR4) (human) (UniProt P61073); assay: cell-based or functional assay
[4] = molecular target: T1, murine chemokine receptor 4 (CXCR4) (murine, UniProt P70658 1-359); assay: competitive radioligand binding on Eµ-Myc1080 mouse B-cell lymphoma cells, [125I]CPCR4.3
T1 construct: whole, on cells; receptor present on whole cells; also called mCXCR4; mouse CXCR4
T1 sequence (P70658 whole entry): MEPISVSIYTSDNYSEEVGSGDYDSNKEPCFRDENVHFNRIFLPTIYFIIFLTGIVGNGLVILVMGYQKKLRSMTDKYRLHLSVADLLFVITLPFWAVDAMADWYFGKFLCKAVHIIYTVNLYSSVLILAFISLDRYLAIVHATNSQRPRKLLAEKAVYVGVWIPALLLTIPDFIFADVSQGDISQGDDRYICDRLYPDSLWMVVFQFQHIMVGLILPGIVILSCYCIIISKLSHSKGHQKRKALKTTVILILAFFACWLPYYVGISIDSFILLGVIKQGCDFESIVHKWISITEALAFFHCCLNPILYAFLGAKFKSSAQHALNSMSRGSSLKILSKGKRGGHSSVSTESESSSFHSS

human chemokine receptor 4 (CXCR4) (human), sequence (P61073 whole entry): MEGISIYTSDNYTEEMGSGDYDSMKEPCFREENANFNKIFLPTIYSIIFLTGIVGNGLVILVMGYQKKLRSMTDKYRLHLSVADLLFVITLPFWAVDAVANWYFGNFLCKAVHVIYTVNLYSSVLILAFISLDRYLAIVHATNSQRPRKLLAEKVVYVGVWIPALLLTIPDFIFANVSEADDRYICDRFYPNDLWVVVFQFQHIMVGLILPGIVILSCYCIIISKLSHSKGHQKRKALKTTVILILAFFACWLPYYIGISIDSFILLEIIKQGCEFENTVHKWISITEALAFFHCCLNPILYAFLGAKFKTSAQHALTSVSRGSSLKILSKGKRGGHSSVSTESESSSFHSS

Molecule	IC50 [1] [nM]	IC50 [2] [nM]	also measured
^natGa-pentixafor, natGa complex of cyclo(D-Tyr1-D-[NMe]Orn2(AMBS-DOTA)-Arg3-Nal4-Gly5) (peptide)	24.8	–	–
cyclo[i-yorn′([natGa]DOTA-dapG-(4-amino)benzoyl-)RNaIG ([natGa]P2) (peptide)	3.6	3.6	–
cyclo[i-yorn′(AMBF3(methyl(1H-1,2,3-triazol-4-yl)-kG-4-amino)benzoyl-)RNaIG] (F4) (peptide)	–	3.8	–
cyclo[yorn′([natY]DOTA-ra-(4-amino)benzoyl-)RNaIG ([natY]P5b) (peptide)	–	0.3	–
cyclo[yorn′([natLu]DOTA-ra-(4-amino)benzoyl-)RNaIG ([natLu]P5b) (peptide)	–	–	specific internalized activity (hCXCR4+ Chem 1 cells, 37 °C, 1.0 nM peptide, 60 min) [3]: 21.2%
cyclo[yorn′([natY]DOTA-rG-(4-amino)benzoyl-)RNaIG ([natY]P4b) (peptide)	–	8.7	–
^natLu-pentixafor, natLu complex of cyclo(D-Tyr1-D-[NMe]Orn2(AMBS-DOTA)-Arg3-Nal4-Gly5) (peptide)	41	–	–
cyclo[i-yorn′([natY]DOTA-kG-(4-amino)benzoyl-)RNaIG ([natY]P3) (peptide)	–	2.4	–
cyclo[i-yorn′([natY]DOTA-dapG-(4-amino)benzoyl-)RNaIG ([natY]P2) (peptide)	–	4.1	–
cyclo[i-yorn′([natGa]DOTA-kG-(4-amino)benzoyl-)RNaIG ([natGa]P3) (peptide)	2.4	2.4	–
cyclo[i-yorn′(AMBF3(methyl(1H-1,2,3-triazol-4-yl)-vG-4-amino)benzoyl-)RNaIG] (F2) (peptide)	–	65.2	–
cyclo[i-yorn′([natLu]DOTA-kG-(4-amino)benzoyl-)RNaIG ([natLu]P3) (peptide)	3.6	3.6	–
cyclo[yorn′([natY]DOTA-kG-(4-amino)benzoyl-)RNaIG ([natY]P3b) (peptide)	–	6.3	–
cyclo[yorn′([natGa]DOTA-rG-(4-amino)benzoyl-)RNaIG ([natGa]P4b) (peptide)	9.7	9.7	–
^natLu-pentixather, natLu complex of cyclo(D-3-iodo-Tyr1-D-[NMe]Orn2(AMBS-DOTA)-Arg3-Nal4-Gly5) (peptide)	–	–	specific internalized activity (hCXCR4+ Chem 1 cells, 37 °C, 1.0 nM peptide, 60 min) [3]: 3.8%
cyclo[i-yorn′(AMBF3(methyl(1H-1,2,3-triazol-4-yl)4-amino)benzoyl-)RNaIG] (F1) (peptide)	–	134	–
cyclo[i-yorn′([natLu]DOTA-ra-(4-amino)benzoyl-)RNaIG ([natLu]P5) (peptide)	–	–	specific internalized activity (hCXCR4+ Chem 1 cells, 37 °C, 1.0 nM peptide, 60 min) [3]: 36.7%
cyclo[-yorn′(AMBF3(methyl(1H-1,2,3-triazol-4-yl)-rG-4-amino)benzoyl-)RNaIG] (F3b) (peptide)	–	2.4	–
cyclo[yorn′([natGa]DOTA-ra-(4-amino)benzoyl-)RNaIG ([natGa]P5b) (peptide)	0.4	0.4	–
cyclo[i-yorn′([natBi]DOTA-kG-(4-amino)benzoyl-)RNaIG ([natBi]P3) (peptide)	–	38	–
cyclo[i-yorn′([natLu]DOTA-d-(4-amino)benzoyl-)RNaIG ([natLu]P1) (peptide)	106	106	–
cyclo[yorn′([natGa]DOTA-kG-(4-amino)benzoyl-)RNaIG ([natGa]P3b) (peptide)	8.9	8.9	–
cyclo[yorn′([natLu]DOTA-kG-(4-amino)benzoyl-)RNaIG ([natLu]P3b) (peptide)	8	8	–
cyclo[yorn′([natLu]DOTA-rG-(4-amino)benzoyl-)RNaIG ([natLu]P4b) (peptide)	5.4	5.4	–
cyclo([dY]RR[Nal]G) (stands under the natLu column heads although it carries no chelator; also called cyclo(Gly-Nal-Arg-Arg-D-Tyr)) [FC131, c[yRRNaIG] (R2)]	–	–	IC50 [4]: 119 nM
